Results taken from US20180155451A1 (published 2018).

T1: FcγRIIb (human, UniProt P31994 43-217)
T1 construct: extracellular domain; also called 2b; FcgRIIb
T1 sequence (looked up): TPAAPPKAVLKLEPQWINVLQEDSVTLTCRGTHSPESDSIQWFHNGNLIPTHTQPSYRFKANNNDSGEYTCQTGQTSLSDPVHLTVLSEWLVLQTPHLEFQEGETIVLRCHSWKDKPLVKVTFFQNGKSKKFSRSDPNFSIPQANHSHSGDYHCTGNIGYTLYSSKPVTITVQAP

B1: GpH7-A5/GpH7-B3 variant L328_13S/GpL16-k0 (antibody, human IgG1, kappa)
heavy 1: not shown
heavy 2: not shown
light: DIVMTQSPLSLPVTPGEPASISCQASESLVHSNRNTYLHWYLQKPGQSPQLLIYKVSNRFSGVPDRFSGSGSGTDFTLKISRVEAEDVGVYYCSQNTHVPPTFGQGTKVEIERTVAAPSVFIFPPSDEQLKSGTASVVCLLNNFYPREAKVQWKVDNALQSGNSQESVTEQDSKDSTYSLSSTLTLSKADYEKHKVYACEVTHQGLSSPVTKSFNRGEC
notes: also called He Ab L328_13S
B2: GpH7-A5/GpH7-B3 variant G237_20W/GpL16-k0 (antibody, human IgG1, kappa)
heavy 1: not shown
heavy 2: not shown
light: B1 light
notes: also called He Ab G237_20W
B3: GpH7-A5/GpH7-B3 variant I336_08L/GpL16-k0 (antibody, human IgG1, kappa)
heavy 1: not shown
heavy 2: not shown
light: B1 light
notes: also called He Ab I336_08L
B4: GpH7-A5/GpH7-B3 variant N325_08L/GpL16-k0 (antibody, human IgG1, kappa)
heavy 1: not shown
heavy 2: not shown
light: B1 light
notes: also called He Ab N325_08L
B5: GpH7-A5/GpH7-B3 variant L235_09D/GpL16-k0 (antibody, human IgG1, kappa)
heavy 1: not shown
heavy 2: not shown
light: B1 light
notes: also called He Ab L235_09D
B6: GpH7-A5/GpH7-B3 variant G237_18N/GpL16-k0 (antibody, human IgG1, kappa)
heavy 1: not shown
heavy 2: not shown
light: B1 light
notes: also called He Ab G237_18N
B7: GpH7-A5/GpH7-B3 variant K326_07I/GpL16-k0 (antibody, human IgG1, kappa)
heavy 1: not shown
heavy 2: not shown
light: B1 light
notes: also called He Ab K326_07I
B8: GpH7-A5/GpH7-B3 variant L328_02A/GpL16-k0 (antibody, human IgG1, kappa)
heavy 1: not shown
heavy 2: not shown
light: B1 light
notes: also called He Ab L328_02A
B9: GpH7-A5/GpH7-B3 variant G237_10E/GpL16-k0 (antibody, human IgG1, kappa)
heavy 1: not shown
heavy 2: not shown
light: B1 light
notes: also called He Ab G237_10E
B10: GpH7-A5/GpH7-B3 variant P238_03V/GpL16-k0 (antibody, human IgG1, kappa)
heavy 1: not shown
heavy 2: not shown
light: B1 light
notes: also called He Ab P238_03V
B11: GpH7-A5/GpH7-B3 variant G237_04F/GpL16-k0 (antibody, human IgG1, kappa)
heavy 1: not shown
heavy 2: not shown
light: B1 light
notes: also called He Ab G237_04F
B12: GpH7-A5/GpH7-B3 variant L234_10E/GpL16-k0 (antibody, human IgG1, kappa)
heavy 1: not shown
heavy 2: not shown
light: B1 light
notes: also called He Ab L234_10E
B13: GpH7-A5/GpH7-B3 variant P238_04F/GpL16-k0 (antibody, human IgG1, kappa)
heavy 1: not shown
heavy 2: not shown
light: B1 light
notes: also called He Ab P238_04F
B14: GpH7-A5/GpH7-B3 variant I336_06M/GpL16-k0 (antibody, human IgG1, kappa)
heavy 1: not shown
heavy 2: not shown
light: B1 light
notes: also called He Ab I336_06M
B15: GpH7-A5/GpH7-B3 variant L235_04F/GpL16-k0 (antibody, human IgG1, kappa)
heavy 1: not shown
heavy 2: not shown
light: B1 light
notes: also called He Ab L235_04F
B16: GpH7-A5/GpH7-B3 variant G237_13S/GpL16-k0 (antibody, human IgG1, kappa)
heavy 1: not shown
heavy 2: not shown
light: B1 light
notes: also called He Ab G237_13S
B17: GpH7-A5/GpH7-B3 variant A330_05P/GpL16-k0 (antibody, human IgG1, kappa)
heavy 1: not shown
heavy 2: not shown
light: B1 light
notes: also called He Ab A330_05P
B18: GpH7-A5/GpH7-B3 variant N325_09D/GpL16-k0 (antibody, human IgG1, kappa)
heavy 1: not shown
heavy 2: not shown
light: B1 light
notes: also called He Ab N325_09D
B19: GpH7-A5/GpH7-B3 variant N325_01G/GpL16-k0 (antibody, human IgG1, kappa)
heavy 1: not shown
heavy 2: not shown
light: B1 light
notes: also called He Ab N325_01G
B20: GpH7-A5/GpH7-B3 variant A327_18N/GpL16-k0 (antibody, human IgG1, kappa)
heavy 1: not shown
heavy 2: not shown
light: B1 light
notes: also called He Ab A327_18N
B21: GpH7-A5/GpH7-B3 variant N325_06M/GpL16-k0 (antibody, human IgG1, kappa)
heavy 1: not shown
heavy 2: not shown
light: B1 light
notes: also called He Ab N325_06M
B22: GpH7-A5/GpH7-B3 variant G237_09D/GpL16-k0 (antibody, human IgG1, kappa)
heavy 1: not shown
heavy 2: not shown
light: B1 light
notes: also called He Ab G237_09D
B23: GpH7-A5/GpH7-B3 variant G237_06M/GpL16-k0 (antibody, human IgG1, kappa)
heavy 1: not shown
heavy 2: not shown
light: B1 light
notes: also called He Ab G237_06M
B24: GpH7-A5/GpH7-B3 variant I332_02A/GpL16-k0 (antibody, human IgG1, kappa)
heavy 1: not shown
heavy 2: not shown
light: B1 light
notes: also called He Ab I332_02A
B25: GpH7-A5/GpH7-B3 variant A327_07I/GpL16-k0 (antibody, human IgG1, kappa)
heavy 1: not shown
heavy 2: not shown
light: B1 light
notes: also called He Ab A327_07I
B26: GpH7-A5/GpH7-B3 variant L235_20W/GpL16-k0 (antibody, human IgG1, kappa)
heavy 1: not shown
heavy 2: not shown
light: B1 light
notes: also called He Ab L235_20W
B27: GpH7-A5/GpH7-B3 variant N325_20W/GpL16-k0 (antibody, human IgG1, kappa)
heavy 1: not shown
heavy 2: not shown
light: B1 light
notes: also called He Ab N325_20W
B28: GpH7-A5/GpH7-B3 variant K326_08L/GpL16-k0 (antibody, human IgG1, kappa)
heavy 1: not shown
heavy 2: not shown
light: B1 light
notes: also called He Ab K326_08L

What follows are binders tested against T1, FcγRIIb (assay: SPR (Biacore), binding relative to GpH7-A5/GpH7-B3/GpL16-k0 = 100).
Protocol: Analysis of interaction between objective antibody and the FcγR was carried out using Biacore T100 (GE Healthcare). HBS-EP+ (GE Healthcare) was used as the running buffer, and the measurement temperature was set to 25° C. Chips produced by immobilizing the antigen peptide by the amine coupling method to a Series S Sencor Chip CM5 (GE Healthcare), or alternatively, chips produced by allowing preliminarily biotinylated antigen peptides to interact with and immobilize onto a Series S Sensor Chip SA (certified) (GE Healthcare) were used. Antibodies of interest were captured onto an antigen peptide-immobilized chip, and allowed to interact to each FcγR diluted with running buffer. To regenerate and repeatedly use the chip, the antibodies captured on the chip were washed off by reacting 10 mM glycine-HCl, pH 1.5.
The FcγR-binding activity of each antibody was assessed primarily using as an indicator the FcγR-binding activity and dissociation constant for FcγR.

He/Con_2b	Binder
149 % of control	B1
193 % of control	B2
107 % of control	B3
197 % of control	B4
106 % of control	B5
180 % of control	B6
199 % of control	B7
144 % of control	B8
114 % of control	B9
120 % of control	B10
149 % of control	B11
118 % of control	B12
312 % of control	B13
101 % of control	B14
118 % of control	B15
111 % of control	B16
137 % of control	B17
124 % of control	B18
101 % of control	B19
113 % of control	B20
217 % of control	B21
223 % of control	B22
130 % of control	B23
103 % of control	B24
127 % of control	B25
147 % of control	B26
169 % of control	B27
177 % of control	B28
